Measurements: patent US5686595, “Bcl-2-associated proteins” (La Jolla Cancer Research Foundation, dated 1997)
Values joined by “and” are separate entries in the source; they are usually repeats but may differ in a detail not shown here. Equal values may be shown once.

What was measured:
[1] = target: human Bcl-2 protein produced in 32D-BCL-2 cells (human) (UniProt P10415); assay: immunoprecipitation with anti-Bcl-2 monoclonal antibody 4D7 or control mouse IgG1 from 32D-BCL-2 lysate, in vitro immune complex kinase assay
[2] = target: GST protein without BAP-1 sequences (Schistosoma japonicum (Blood fluke), UniProt P08515 = GST); assay: GST pull-down of 35S-labeled in vitro translated protein, SDS-PAGE and fluorography
Protocol: The cDNA sequences encoding Bcl-X-L, Bcl-X-S, Bcl-2 and Bcl-2β were subcloned into plasmid pSK-II (Stratagens), which contains a T7 RNA polymerass binding site. Cloning into pSK-II allows for the in vitro production of RNA, which can be translated in vitro in the presence of ^35S-methionine using reticulocyte lysates to obtain ^35S-labeled proteins. The ^35S-labeled Bcl-2-related proteins (20 µl of in vitro translation mix) were added to approximately 1 µg of GST-BAP-1 fusion protein immobilized on 10 µl of glutathione-Sepharose or with approximately 1 µg of immobilized GST control protein as described above. Following incubation at 4° C. for 1 hr, the Sepharose particles were washed 3× in a solution containing 147 mM KCl, 20 mM Hepes (pH 7.1), 1 mM MgCl_2, 0.5 mM EGTA, 1 mM PMSF, 0.05 NP-40, 1 mM DTT, 1% non-fat dried milk and 1% BSA. The Sepharose particles were collected by centrifugation and boiled in Laemmli sample buffer to release any bound ^35S-labeled Bcl-2-related proteins. The released proteins were size-fractionated by SDS-PAGE using a 10% gel and visualized by fluorography using X-ray film.

Molecule: full length endogenous Raf-1 kinase (from UniProt Q99N57) (enzyme)
- Raf-1 kinase activity in Bcl-2 immune complexes relative to control immune complexes (× (fold over control immune complexes)) [1]: 20 and 50

B1: 35S-labeled Bcl-2β (in vitro translated) (other)
chain: MAHAGRTGYDNREIVMKYIHYKLSQRGYEWDAGDVGAAPPGAAPAPGIFSSQPGHTPHPAASRDPVARTSPLQTPAAPGAAAGPALSPVPPVVHLTLRQAGDDFSRRYRRDFAEMSSQLHLTPFTARGRFATVVEELFRDGVNWGRIVAFFEFGGVMCVESVNREMSPLVDNIALWMTEYLNRHLHTWIQDNGGWVGALGDVSLG
modifications: 35S-methionine label
- binding result [2]: no binding

B2: 35S-labeled Bcl-X-S (in vitro translated) (other)
chain: MSQSNRELVVDFLSYKLSQKGYSWSQFSDVEENRTEAPEGTESEMETPSAINGNPSWHLADSPAVNGATGHSSSLDAREVIPMAAVKQALREAGDEFELRYRRAFSDLTSQLHITPGTAYQSFEQDTFVELYGNNAAAESRKGQERFNRWFLTGMTVAGVVLLGSLFSRK
modifications: 35S-methionine label
- binding result [2]: no binding
